# Measured values reported in US20090012270A1 (MEDICAL RESEARCH COUNCIL, published 2009).
# B1: human IgG-mouse OX2RH1 fusion protein (extracellular region of OX2RH1 fused to human IgG) (Fc fusion)
# chain: TDKNQTTQNNSSSPLTQVNTTVSVQIGTKALLCCFSIPLTKAVLITWIIKLRGLPSCTIAYKVDTKTNETSCLGRNITWASTPDHSPELQISAVTLQHEGTYTCETVTPEGNFEKNYDLQVLVPPEVTYFPEKNRSAVCEAMAGKPAAQISWSPDGDCVTTSESHSNGTVTVRSTCHWEQNNVSDVSCIVSHLTGNQSLSIELSRGGNQSLRP
# notes: Soluble protein from cells infected with an adenovirus construct; also called OX2R fusion protein; Ig-OX2R fusion protein; not shown: human IgG backbone with the human Fc portion
# Molecular target: T1, mouse OX2 (mouse, UniProt O54901 31-278)
# T1 construct: whole, on cells; also called ligand OX2 (mouse); normally expressed mouse OX2
# T1 sequence (looked up): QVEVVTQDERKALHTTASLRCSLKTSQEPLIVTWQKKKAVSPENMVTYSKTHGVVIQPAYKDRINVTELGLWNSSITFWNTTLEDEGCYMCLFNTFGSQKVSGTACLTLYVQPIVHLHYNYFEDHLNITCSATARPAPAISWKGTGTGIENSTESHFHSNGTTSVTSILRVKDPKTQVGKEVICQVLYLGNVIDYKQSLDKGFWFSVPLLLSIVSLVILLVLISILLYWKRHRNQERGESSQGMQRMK
# Assay: immunoperoxidase staining of mouse spleen sections, detected with anti-human Fc
# Method: To determine function of OX2-OX2R interaction in vitro and in vivo, an adenovirus construct was prepared that produced in soluble form, the extracellular region of OX2RH1 fused to human IgG. A control construct was prepared that produced in soluble form, only the human IgG backbone. In the first instance, supernatants containing these fusion proteins were produced by cellular infection in vitro to test whether the OX2R fusion protein had biological function on the basis of binding to normally expressed mouse OX2. In the first series of studies, tissue sections of mouse spleen from normal as well as OX2-gene knockout (KO) mice, were prepared and OX2R, or control fusion proteins were added, and these reagents detected by addition of an antibody binding to the human Fc portion of the fusion protein, and subsequent immunoperoxidase staining procedures to reveal binding. Weak binding only of the OX2R fusion protein, and only in normal but not OX2 KO mice, was detected on follicular dendritic cells and endothelial cells. Both cell types are know to express very high levels of the ligand OX2.
binder,measurement,value
B1,binding result,binds
